Target: repeat-domain of Tau (Tau^RD) (human, UniProt P10636-8 244-373)
Assay: co-IP

Chain of repeat-domain of Tau (Tau^RD) (P10636 561-690): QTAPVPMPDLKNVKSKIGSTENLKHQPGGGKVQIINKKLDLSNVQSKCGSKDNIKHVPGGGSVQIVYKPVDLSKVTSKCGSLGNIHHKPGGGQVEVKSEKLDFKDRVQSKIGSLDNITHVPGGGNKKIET

B1: microglial P2Y12 receptor (receptor, mouse (endogenous in N9), UniProt Q9CPV9 1-347, looked up)
chain: MDVPGVNTTSANTTFSPGTSTLCVRDYKITQVLFPLLYTVLFFAGLITNSLAMRIFFQIRSKSNFIIFLKNTVISDLLMILTFPFKILSDAKLGAGPLRTLVCQVTSVTFYFTMYISISFLGLITIDRYLKTTRPFKTSSPSNLLGAKILSVVIWAFMFLISLPNMILTNRRPKDKDVTKCSFLKSEFGLVWHEIVNYICQVIFWINFLIVIVCYSLITKELYRSYVRTRGSAKVPKKKVNVKVFIIIAVFFICFVPFHFARIPYTLSQTRAVFDCSAENTLFYVKESTLWLTSLNACLDPFIYFFLCKSFRNSLTSMLRCSNSTSTSGTNKKKGQEGGEPSEETPM
What does the source list for B1?
fold band intensity against cell control, 1 uM Tau^RD: 1.2 fold; fold band intensity against cell control, 5 uM Tau^RD: 2 fold
